{"source": "paper PMC11132685", "target": "tetrabrachion-stabilised recombinant N2 NA (NACHO) of A/MORAMANGA/1907/2017 (not stated | influenza A virus (H3N2) A/MORAMANGA/1907/2017)", "experiment": "SEC-MALS; purified NACHOs; oligomeric state; conditions not given", "data": [{"substance": "tetrabrachion-stabilised recombinant N2 NA (NACHO) of A/MORAMANGA/1907/2017 (enzyme)", "values": [{"measurement": "stoichiometry N", "result": 4}]}]}
